For the assay, the target named is T1, His-SUMO-C-GB1 (SETD2 region C) (UniProt Q9BYW2 817-1322).
T1 sequence (looked up): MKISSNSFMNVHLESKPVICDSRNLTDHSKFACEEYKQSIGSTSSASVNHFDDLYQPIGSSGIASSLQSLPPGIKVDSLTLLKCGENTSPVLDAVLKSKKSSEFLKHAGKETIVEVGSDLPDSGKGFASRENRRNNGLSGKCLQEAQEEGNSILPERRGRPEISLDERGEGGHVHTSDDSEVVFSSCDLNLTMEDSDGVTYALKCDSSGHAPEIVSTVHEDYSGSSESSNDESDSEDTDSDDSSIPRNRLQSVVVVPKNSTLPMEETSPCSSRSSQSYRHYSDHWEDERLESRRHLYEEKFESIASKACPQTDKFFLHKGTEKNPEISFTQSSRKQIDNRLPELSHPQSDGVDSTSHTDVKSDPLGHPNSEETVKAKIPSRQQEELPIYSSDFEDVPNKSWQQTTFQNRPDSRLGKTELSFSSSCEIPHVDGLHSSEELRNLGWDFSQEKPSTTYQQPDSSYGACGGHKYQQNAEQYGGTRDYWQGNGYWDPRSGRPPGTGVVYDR
The assay can be described thus: pull-down.

B1: GST-lamin A-CT (387-664 a.a.) (domain or fragment, human, UniProt P02545 387-664, looked up)
chain: LRLSPSPTSQRSRGRASSHSSQTQGGGSVTKKRKLESTESRSSFSQHARTSGRVAVEEVDEEGKFVRLRNKSNEDQSMGNWQIKRQNGDDPLLTYRFPPKFTLKAGQVVTIWAAGAGATHSPPTDLVWKAQNTWGCGNSLRTALINSTGEEVAMRKLVRSVTVVEDDEDEDGDDLLHHHHGSHCSSSGDPAEYNLRSRTVLCGTCGQPADKASASGSGAQVGGPISSGSSASSVTVTRSYRSVGGSGGGSFGDNLVTRSYLLGNSSPRTQSPQNCSIM
Turning to B1, the binding result was “binds”.

These data come from paper PMC12912276 (Nature cell biology, 2025).
